Experimental data reported in patent US20240271115A1.

Target: Human IgG in human serum

B1: Recombinant IdeS expressed from codon-optimized cDNA IdeS^op2 (pGEX-IdeS^op2), designated Ab-C (protein)
chain: RKRCYSTSAVVLAAVTLFALSVDRGVIADSFSANQEIRYSEVTPYHVTSVWTKGVTPPAKFTQGEDVFHAPYVANQGWYDITKTFNGKDDLLCGAATAGNMLHWWFDQNKEKIEAYLKKHPDKQKIMFGDQELLDVRKVINTKGDQTNSELFNYFRDKAFPGLSARRIGVMPDLVLDMFINGYYLNVYKTQTTDVNRTYQEKDRRGGIFDAVFTRGDQSKLLTSRHDFKEKNLKEISDLIKKELTEGKALGLSHTYANVRINHVINLWGADFDSNGNLKAIYVTDSDSNASIGMKKYFVGVNSAGKVAISAKEIKEDNIGAQVLGLFTLSTGQDSWNQTN
**Q.** With B1 as the protein, how does the “IgG cleavage, PAGE-Coomassie stain, purified normalized IdeS samples incubated with human serum for 1 h” value read?
**A.** The value was “The results showed more effective IgG cleavage by IdeS^op2”.
